Laboratory results as given in the supplement of paper PMC9112550, “Optimization of the antimicrobial peptide Bac7 by deep mutational scanning” (BMC Biology, 2022).

Each sequence was assayed on Escherichia coli TOP10 (assay: shrunken log2 fold change of peptide-encoding DNA abundance (4.5 h post-induction vs induction); higher = less antimicrobial activity (less host growth inhibition)). Conditions: time post-induction: 4.5 h; library: site-saturation at positions 5, 18, 19, 20.
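Note: peptides expressed intracellularly from a pBAD plasmid library in pooled LB shake-flask culture, induced with 0.3% L-arabinose, DNA abundance read by NGS, three biological replicates, DESeq2 with apeglm shrinkage.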

Sequence	shrunken log2 fold change
RRIRQRPPRLPRPRPRPIECPRP	-0.0217
RRIRIRPPRLPRPRPRPEQWPRP	-0.0237
RRIRQRPPRLPRPRPRPWMIPRP	0.0219
RRIRVRPPRLPRPRPRPKVIPRP	-0.21
RRIRERPPRLPRPRPRPNFCPRP	0.00589
RRIRMRPPRLPRPRPRPKDKPRP	1.93
RRIRWRPPRLPRPRPRPTLDPRP	0.745
RRIRSRPPRLPRPRPRPRMLPRP	-0.214
RRIRHRPPRLPRPRPRPTWLPRP	0.326
RRIRERPPRLPRPRPRPMHVPRP	0.05
RRIRKRPPRLPRPRPRPAKTPRP	0.0104
RRIRKRPPRLPRPRPRPVFMPRP	0.138
RRIRNRPPRLPRPRPRPAQQPRP	0.017
RRIRMRPPRLPRPRPRPWHWPRP	0.0862
RRIRARPPRLPRPRPRPDYTPRP	-0.312
RRIRKRPPRLPRPRPRPGGDPRP	0.16
RRIRWRPPRLPRPRPRPPPYPRP	0.0878
RRIRQRPPRLPRPRPRPRGKPRP	0.00142
RRIRIRPPRLPRPRPRPKIHPRP	-0.464
RRIRNRPPRLPRPRPRPWFMPRP	0.0336
RRIRFRPPRLPRPRPRPGNPPRP	-0.00343
RRIRSRPPRLPRPRPRPDFFPRP	-0.0547

Sequence	shrunken log2 fold change
RRIRQRPPRLPRPRPRPLRRPRP	2.24
RRIRARPPRLPRPRPRPYEAPRP	-0.222
RRIRVRPPRLPRPRPRPNVSPRP	-0.0331
RRIRQRPPRLPRPRPRPDIWPRP	-0.214
RRIRCRPPRLPRPRPRPVQGPRP	-0.0182
RRIRTRPPRLPRPRPRPSEWPRP	-0.0236
RRIRKRPPRLPRPRPRPVYWPRP	-0.0795
RRIRVRPPRLPRPRPRPPCLPRP	-0.108
RRIRSRPPRLPRPRPRPYSPPRP	-0.839
RRIRTRPPRLPRPRPRPRPAPRP	0.555
RRIRTRPPRLPRPRPRPKHKPRP	-0.185
RRIRKRPPRLPRPRPRPIMHPRP	-0.204
RRIRFRPPRLPRPRPRPAVWPRP	0.402
RRIRRRPPRLPRPRPRPKRPPRP	0.656
RRIRGRPPRLPRPRPRPCFSPRP	0.0442
RRIRERPPRLPRPRPRPSDSPRP	-0.186
RRIRWRPPRLPRPRPRPVQDPRP	-0.103
RRIRRRPPRLPRPRPRPIHYPRP	-0.359
RRIRNRPPRLPRPRPRPEKKPRP	-0.113
RRIRSRPPRLPRPRPRPERPPRP	0.384
RRIRQRPPRLPRPRPRPVTDPRP	0.05
RRIRCRPPRLPRPRPRPLERPRP	-0.199

Sequence	shrunken log2 fold change
RRIRCRPPRLPRPRPRPIDQPRP	-0.0719
RRIRDRPPRLPRPRPRPSKSPRP	-0.223
RRIRLRPPRLPRPRPRPIGLPRP	0.00285
RRIRLRPPRLPRPRPRPPPFPRP	0.791
RRIRHRPPRLPRPRPRPHYEPRP	0.0367
RRIRTRPPRLPRPRPRPTGSPRP	0.0948
RRIRRRPPRLPRPRPRPRQPPRP	0.997
RRIRLRPPRLPRPRPRPIWTPRP	0.0256
RRIRERPPRLPRPRPRPWTHPRP	-0.0081
RRIRVRPPRLPRPRPRPCIHPRP	0.0261
RRIRGRPPRLPRPRPRPAYMPRP	-0.353
RRIRERPPRLPRPRPRPPQIPRP	0.15
RRIRQRPPRLPRPRPRPAEGPRP	0.045
RRIRIRPPRLPRPRPRPIGAPRP	-0.0926
RRIRNRPPRLPRPRPRPFHEPRP	-0.00822
RRIRYRPPRLPRPRPRPCPNPRP	0.626
RRIRQRPPRLPRPRPRPASYPRP	-0.121
RRIRKRPPRLPRPRPRPYLQPRP	-0.599
RRIRWRPPRLPRPRPRPHEHPRP	0.0185
RRIRARPPRLPRPRPRPLQCPRP	0.049
RRIRWRPPRLPRPRPRPRLEPRP	0.778
RRIRERPPRLPRPRPRPDIKPRP	-0.248

Sequence	shrunken log2 fold change
RRIRLRPPRLPRPRPRPKHTPRP	0.228
RRIRNRPPRLPRPRPRPDWTPRP	-0.0129
RRIRPRPPRLPRPRPRPIGQPRP	0.121
RRIRMRPPRLPRPRPRPRELPRP	1.54
RRIRMRPPRLPRPRPRPHAYPRP	0.0623
RRIRWRPPRLPRPRPRPATRPRP	0.38
RRIRHRPPRLPRPRPRPEWKPRP	-0.00613
RRIRQRPPRLPRPRPRPEMQPRP	0.0355
RRIRARPPRLPRPRPRPEWSPRP	0.949
RRIRNRPPRLPRPRPRPAAMPRP	-0.223
RRIRNRPPRLPRPRPRPIGPPRP	-0.181
RRIRKRPPRLPRPRPRPAAQPRP	0.814
RRIRYRPPRLPRPRPRPARPPRP	0.943
RRIRLRPPRLPRPRPRPCWCPRP	0.0793
RRIRARPPRLPRPRPRPQMAPRP	0.274
RRIRARPPRLPRPRPRPYGGPRP	-0.221
RRIRNRPPRLPRPRPRPCMFPRP	-0.68
RRIRPRPPRLPRPRPRPKPPPRP	0.538
RRIRNRPPRLPRPRPRPGEDPRP	-0.376
RRIRGRPPRLPRPRPRPTHMPRP	0.745
RRIRWRPPRLPRPRPRPSSDPRP	-0.0856
RRIRMRPPRLPRPRPRPTHNPRP	0.275

Sequence	shrunken log2 fold change
RRIRMRPPRLPRPRPRPLSKPRP	-0.103
RRIRSRPPRLPRPRPRPVMWPRP	0.459
RRIRMRPPRLPRPRPRPALGPRP	0.625
RRIRDRPPRLPRPRPRPTACPRP	0.388
RRIRTRPPRLPRPRPRPTFYPRP	-0.0485
RRIRERPPRLPRPRPRPNDLPRP	-0.016
RRIRIRPPRLPRPRPRPVDEPRP	-0.0203
RRIRDRPPRLPRPRPRPKNLPRP	-0.0874
RRIRHRPPRLPRPRPRPVRLPRP	0.0217
RRIRTRPPRLPRPRPRPMSTPRP	-0.0153
RRIRTRPPRLPRPRPRPLLAPRP	0.282
RRIRERPPRLPRPRPRPAFLPRP	-0.289
RRIRERPPRLPRPRPRPLRQPRP	0.0463
RRIRIRPPRLPRPRPRPSWCPRP	-0.532
RRIRLRPPRLPRPRPRPAELPRP	-0.172
RRIRFRPPRLPRPRPRPSYCPRP	-0.345
RRIRCRPPRLPRPRPRPDWAPRP	0.0311
RRIRKRPPRLPRPRPRPEYAPRP	-0.000279
RRIRMRPPRLPRPRPRPLRLPRP	0.959
RRIRQRPPRLPRPRPRPSPEPRP	-0.0086
RRIRCRPPRLPRPRPRPNRAPRP	0.00805
